Data published in PMC8044140 (Communications Biology, 2021).

Key:
[1] = target: T1, PefR (holo-PefR, ferrous heme-bound) (Streptococcus agalactiae, UniProt R4Z9I5); format: binding
T1 construct: gene AX245_08385; recombinant holo-PefR, homodimer
T1 sequence (R4Z9I5 1-146): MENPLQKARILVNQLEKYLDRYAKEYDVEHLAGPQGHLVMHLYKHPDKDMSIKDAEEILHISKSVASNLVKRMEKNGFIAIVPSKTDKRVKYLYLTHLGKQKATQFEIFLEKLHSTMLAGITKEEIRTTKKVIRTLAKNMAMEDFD

[2] = target: PefR (porphyrin-regulated efflux regulator) from Streptococcus agalactiae, non-His-tagged (Streptococcus agalactiae); test: SEC; gel filtration of purified apo-PefR (heme-free); single peak, estimated ~35 kDa against ca. 17 kDa for the monomer
[3] = target: PefR (porphyrin-regulated efflux regulator) from Streptococcus agalactiae, non-His-tagged (Streptococcus agalactiae); test: SEC; gel filtration of holo-PefR (heme-bound)
[4] = target: T2, PefR (porphyrin-regulated efflux regulator) (Streptococcus agalactiae, UniProt R4Z9I5); test: biochemical; format: binding
T2 construct: gene AX245_08385; recombinant PefR, C-terminal His tag removed with HRV3C protease; homodimer, two hemes per dimer
T2 sequence (R4Z9I5 1-146): T1 sequence (R4Z9I5 1-146)

PefR [5] = target: T3, PefR (Streptococcus agalactiae, UniProt Q8E4J9 1-146); test: fluorescence polarization; apo (heme-free); 1:1 dimer:dsDNA; 500 mM NaCl; EMSA: 20 mM Tris-HCl pH 7.4, 50 mM KCl, 5% glycerol, 0.2 M MgCl2, room temperature; FP: 40 mM HEPES/Na pH 7.4, 500 mM NaCl, 10% glycerol, 10 nM DNA, room temperature; conditions: protein: recombinant; tags: C-terminal HRV3C site-6xHis, His tag removed by HRV3C protease (site remnant remains); chain copies: 2; label: 5'-FAM on antisense strand; blunt
T3 sequence: T1 sequence (R4Z9I5 1-146)

PefR H114A = PefR H114A (Streptococcus agalactiae, UniProt Q8E4J9 1-146, H114A); test: fluorescence polarization; apo (heme-free); 1:1 dimer:dsDNA; EMSA: 20 mM Tris-HCl pH 7.4, 50 mM KCl, 5% glycerol, 0.2 M MgCl2, room temperature; FP: 40 mM HEPES/Na pH 7.4, 500 mM NaCl, 10% glycerol, 10 nM DNA, room temperature; conditions: protein: recombinant; tags: C-terminal HRV3C site-6xHis, removed; chain copies: 2; label: 5'-FAM on antisense strand; blunt
PefR [6] = target: T3, PefR; test: EMSA; apo (heme-free); EMSA: 20 mM Tris-HCl pH 7.4, 50 mM KCl, 5% glycerol, 0.2 M MgCl2, room temperature; FP: 40 mM HEPES/Na pH 7.4, 500 mM NaCl, 10% glycerol, 10 nM DNA, room temperature; conditions: protein: recombinant; tags: C-terminal HRV3C site-6xHis, His tag removed by HRV3C protease (site remnant remains); chain copies: 2; label: 5'-FAM on antisense strand; blunt
PefR [7] = target: T3, PefR; test: X-ray crystallography; apo (heme-free), 2.5 A; EMSA: 20 mM Tris-HCl pH 7.4, 50 mM KCl, 5% glycerol, 0.2 M MgCl2, room temperature; FP: 40 mM HEPES/Na pH 7.4, 500 mM NaCl, 10% glycerol, 10 nM DNA, room temperature; conditions: protein: recombinant; tags: C-terminal HRV3C site-6xHis, His tag removed by HRV3C protease (site remnant remains); chain copies: 2; blunt
PefR R89A = PefR R89A (Streptococcus agalactiae, UniProt Q8E4J9 1-146, R89A); test: EMSA; apo; 1:1 dimer:DNA, 5 uM; EMSA: 20 mM Tris-HCl pH 7.4, 50 mM KCl, 5% glycerol, 0.2 M MgCl2, room temperature; FP: 40 mM HEPES/Na pH 7.4, 500 mM NaCl, 10% glycerol, 10 nM DNA, room temperature; conditions: protein: recombinant; tags: C-terminal HRV3C site-6xHis, removed; chain copies: 2; label: 5'-FAM on antisense strand; blunt
PefR S67A = PefR S67A (Streptococcus agalactiae, UniProt Q8E4J9 1-146, S67A); test: EMSA; apo; 1:1 dimer:DNA, 5 uM; similar to WT; EMSA: 20 mM Tris-HCl pH 7.4, 50 mM KCl, 5% glycerol, 0.2 M MgCl2, room temperature; FP: 40 mM HEPES/Na pH 7.4, 500 mM NaCl, 10% glycerol, 10 nM DNA, room temperature; conditions: protein: recombinant; tags: C-terminal HRV3C site-6xHis, removed; chain copies: 2; label: 5'-FAM on antisense strand; blunt
PefR K53A = PefR K53A (Streptococcus agalactiae, UniProt Q8E4J9 1-146, K53A); test: as above; conditions: protein: recombinant; tags: C-terminal HRV3C site-6xHis, removed; chain copies: 2; label: 5'-FAM on antisense strand; blunt
PefR K63A = PefR K63A (Streptococcus agalactiae, UniProt Q8E4J9 1-146, K63A); test: as above; conditions: protein: recombinant; tags: C-terminal HRV3C site-6xHis, removed; chain copies: 2; label: 5'-FAM on antisense strand; blunt
PefR S62A = PefR S62A (Streptococcus agalactiae, UniProt Q8E4J9 1-146, S62A); test: as above; conditions: protein: recombinant; tags: C-terminal HRV3C site-6xHis, removed; chain copies: 2; label: 5'-FAM on antisense strand; blunt
PefR K75A = PefR K75A (Streptococcus agalactiae, UniProt Q8E4J9 1-146, K75A); test: as above; conditions: protein: recombinant; tags: C-terminal HRV3C site-6xHis, removed; chain copies: 2; label: 5'-FAM on antisense strand; blunt

For [C-]#[O+] [carbon monoxide], which Kd [1] is on record?
The Kd was 0.11 and 0.033 μM.

How did the stoichiometry N [2] turn out when “PefR (porphyrin-regulated efflux regulator) from Streptococcus agalactiae, non-His-tagged (natural protein)” was run?
Its stoichiometry N is 2.

What about the stoichiometry N [3] of the same molecule?
Its stoichiometry N is 2.

C=CC1=C(C)C2=Cc3c(C=C)c(C)c4[n]3[Fe][n]3c(c(C)c(CCC(=O)O)c3=CC3=NC(=C4)C(C)=C3CCC(=O)O)=CC1=N2 [heme] was tested. Which Kd [4] did it give?
The Kd was 610 nM.

B1: pefAB operator 38 bp (dsDNA)
DNA 1: GCTATTATAAAATAGTTCTCACGATAACTAAAATAATG
DNA 2: CATTATTTTAGTTATCGTGAGAACTATTTTATAATAGC
Which Kd (PefR [5]) does the source give for B1 here?
The Kd was 40 nM.

And the Kd (PefR H114A)?
The Kd was roughly 25 nM.

B2: nontarget DNA (dsDNA)
DNA 1: GTTTTAAAACGACCTCTGTAGCGGTCGTTAAAGG
DNA 2: CCTTTAACGACCGCTACAGAGGTCGTTTTAAAAC
Does B2 bind (PefR [6])?
Result: no binding

B3: pefRCD operator 28 bp (EMSA) (dsDNA)
DNA 1: TAAAATAGTTCTCACGATAACTATTAAA
DNA 2: TTTAATAGTTATCGTGAGAACTATTTTA
Does B3 bind (PefR [6])?
Result: binds

B4: pefRCD operator for crystal (dsDNA)
DNA 1: TAAAATAGTTCTCACGATAACTATTAAAT
DNA 2: ATTTAATAGTTATCGTGAGAACTATTTTA
Does B4 bind (PefR [7])?
Result: binds

B5: target DNA (operon not stated) (dsDNA)
DNA 1: TAAAATAGTTCTCACGATAACTATTAAA
DNA 2: TTTAATAGTTATCGTGAGAACTATTTTA
Does B5 bind (PefR R89A)?
Result: no binding

Does B5 bind (PefR S67A)?
Result: binds

Does B5 bind (PefR K53A)?
Result: binds

Does B5 bind (PefR K63A)?
Result: binds

Does B5 bind (PefR S62A)?
Result: binds

Does B5 bind (PefR K75A)?
Result: binds
